The source of these data is PMC11973759 (Journal for Immunotherapy of Cancer, 2025).

B1: CD18 I-domain (Cloud-Clone) (domain or fragment)
chain: GYPIDLYYLMDLSYSMLDDLRNVKKLGGDLLRALNEITESGRIGFGSFVDKTVLPFVNTHPDKLRNPCPNKEKECQPPFAFRHVLKLTNNSNQFQTEVGKQLISGNLDAPEGGLDAMMQVAACPEEIGWRNVTRLLVFATDDGFHFAGDGKLGAILTPNDGRCHLEDNLYKRSNEFDYPSVGQLAHKLAENNIQPIFAVTSRMVKTYEKLTEIIPKSAVGELSEDSSNVVHLIKNAYNKL
B2: biotinylated TAMpep (peptide)
chain: VLTTGLPALISWIKRKRQQ
modifications: also: biotin, position not given here

Where no end group is shown, it is not given here.

The target of the test “biotinylated TAMpep” is B2. The test can be described thus: SPR. A general note: In SPR one partner is held on a chip, and binding of the other changes the refractive index at the surface.
Test [1] deals with CD18 cysteine-rich domain (Cloud-Clone). The test can be described thus: SPR.

B1: the Kd (in general, the equilibrium constant for the complex coming apart) with biotinylated TAMpep is 4.7 nM.

As for B2, in test [1], the Kd was 0.185 nM.
